Assay results: US12589164

B1: membrane type serine protease 1 (MT-SP1) (protein)
chain: VVGGTDADEGEWPWQVSLHALGQGHICGASLISPNWLVSAAHCYIDDRGFRYSDPTQWTAFLGLHDQSQRSAPGVQERRLKRIISHPFFNDFTFDYDIALLELEKPAEYSSMVRPICLPDASHVFPAGKAIWVTGWGHTQYGGTGALILQKGEIRVINQTTCENLLPQQITPRMMCVGFLSGGVDSCQGDSGGPLSSVEADGRIFQAGVVSWGDGCAQRNKPGVYTRLPLFRDWIKENTGV
B2: MMP2 (protein)
chain: YNFFPRKPKWDKNQITYRIIGYTPDLDPETVDDAFARAFQVWSDVTPLRFSRIHDGEADIMINFGRWEHGDGYPFDGKDGLLAHAFAPGTGVGGDSHFDDDELWTLGEGQVVRVKYGNADGEYCKFPFLFNGKEYNSCTDTGRSDGFLWCSTTYNFEKDGKYGFCPHEALFTMGGNAEGQPCKFPFRFQGTSYDSCTTEGRTDGYRWCGTTEDYDRDKKYGFCPETAMSTVGGNSEGAPCVFPFTFLGNKYESCTSAGRSDGKMWCATTANYDDDRKWGFCPDQGYSLFLVAAHEFGHAMGLEHSQDPGALMAPIYTYTKNFRLSQDDIKGIQELYGASPDIDLGTGPTPTLGPVTPEICKQDIVFDGIAQIRGEIFFFKDRFIWRTVTPRDKPMGPLLVATFWPELPEKIDAVYEAPQEEKAVFFAGNEYWIYSASTLERGYPKPLTSLGLPPDVQRVDAAFNWSKNKKTYIFAGDKFWRYNEVKKKMDPGFPKLIADAWNAIPDNLDAVVDLQGGGHSYFFKGAYYLKLENQSLKSVKFGSIKSDWLGC

Experiments:
[1] = target: (MCA)-His-Gln-Ser-Arg-Pro-Trp-Gly-Leu-Gly-Ser-Lys (DNP)-D-Arg (SEQ ID NO: 660)
[2] = target: (MCA)-His-Gln-Ser-Arg-Ser-Ala-Ile-Ala-Leu-Gly-Ser-Lys (DNP)-D-Arg (SEQ ID NO: 655)
[3] = target: (MCA)-His-Gln-Ser-Arg-Ser-Ala-Ile-Ala-Leu-X1-Gly-Lys (DNP)-D-Arg (SEQ ID NO: 654) where X1 is Y
[4] = target: (MCA)-His-Gln-Ser-Arg-Ser-Ala-Ile-Ala-Leu-X1-X2-Lys (DNP)-D-Arg (SEQ ID NO: 653) where X1 is Y and X2 is A
[5] = target: (MCA)-His-Gln-Ser-Arg-Ser-Gly-Pro-Trp-Gly-Leu-X1-Lys (DNP)-D-Arg (SEQ ID NO: 659) where X1 is absent
[6] = target: (MCA)-His-Gln-Ser-Arg-Ser-Pro-Trp-Gly-Gly-Ser-Lys (DNP)-D-Arg (SEQ ID NO: 661)
[7] = target: (MCA)-His-Gln-Ser-Arg-Ser-Pro-Trp-Gly-Leu-Gly-Lys (DNP)-D-Arg (SEQ ID NO: 665)
[8] = target: (MCA)-Ser-Pro-Trp-Gly-Leu-His-Gln-Ser-Arg-Gly-Lys (DNP)-D-Arg (SEQ ID NO: 663)
[9] = target: (MCA)-Ser-Pro-Trp-Gly-Leu-His-Gln-Ser-Arg-Ser-Lys (DNP)-D-Arg (SEQ ID NO: 657)
[10] = target: (MCA)-Ser-Pro-Trp-Gly-Leu-His-Gln-Ser-Lys-Ser-Lys (DNP)-D-Arg (SEQ ID NO: 664)
[11] = target: D-Arg-Lys (DNP)-Ala-Ile-Ala-Leu-His-Gln-Ser-Arg-Ser-Lys (MCA)-D-Arg (SEQ ID NO: 658)
[12] = target: peptide probe with CM … (SEQ ID NO: 641)
[13] = target: peptide probe with CM … (SEQ ID NO: 642)
[14] = target: peptide probe with CM … (SEQ ID NO: 643)
[15] = target: peptide probe with CM … (SEQ ID NO: 644)
[16] = target: peptide probe with CM … (SEQ ID NO: 645)
[17] = target: peptide probe with CM … (SEQ ID NO: 646)
[18] = target: peptide probe with CM … (SEQ ID NO: 647)
[19] = target: peptide probe with CM … (SEQ ID NO: 639)
[20] = target: peptide probe with CM … (SEQ ID NO: 648)
[21] = target: peptide probe with CM … (SEQ ID NO: 649)
[22] = target: peptide probe with CM … (SEQ ID NO: 650)

Protein	Probe Cleavage (pM/s) [1]	Probe Cleavage (pM/s) [2]	Probe Cleavage Kcat/KM [2]	Probe Cleavage (pM/s) [3]	Probe Cleavage Kcat/KM [3]	Probe Cleavage (pM/s) [4]	Probe Cleavage Kcat/KM [4]	Probe Cleavage (pM/s) [5]	Probe Cleavage (pM/s) [6]	Probe Cleavage (pM/s) [7]	Probe Cleavage (pM/s) [8]	Probe Cleavage (pM/s) [9]	Probe Cleavage Kcat/KM [9]	Probe Cleavage (pM/s) [10]	Probe Cleavage (pM/s) [11]	Probe Cleavage Kcat/KM [11]	Probe Cleavage (pM/s) [12]	Probe Cleavage (pM/s) [13]	Probe Cleavage (pM/s) [14]	Probe Cleavage (pM/s) [15]	further results
B1	32 pM/s	Above limit of quantitation	510000 M⁻¹ s⁻¹	1960 pM/s	790000 M⁻¹ s⁻¹	1750 pM/s	630000 M⁻¹ s⁻¹	9930 pM/s	3470 pM/s	1210 pM/s	540 pM/s	1280 pM/s	28000 M⁻¹ s⁻¹	1630 pM/s	11500 pM/s	55000 M⁻¹ s⁻¹	Above limit of quantitation	1860 pM/s	11300 pM/s	8 pM/s	Probe Cleavage Kcat/KM [7]: 35000 M⁻¹ s⁻¹; Probe Cleavage (pM/s) [16]: 7330 pM/s; Probe Cleavage (pM/s) [17]: Above limit of quantitation; Probe Cleavage (pM/s) [18]: Above limit of quantitation; Probe Cleavage (pM/s) [19]: 10800 pM/s; Probe Cleavage (pM/s) [20]: 4120 pM/s; Probe Cleavage (pM/s) [21]: 7780 pM/s; Probe Cleavage (pM/s) [22]: 7920 pM/s
B2	4020 pM/s	76.9 pM/s	4900 M⁻¹ s⁻¹	434 pM/s	67000 M⁻¹ s⁻¹	468 pM/s	29000 M⁻¹ s⁻¹	94.8 pM/s	61.6 pM/s	44.2 pM/s	6840 pM/s	2550 pM/s	54000 M⁻¹ s⁻¹	6640 pM/s	4220 pM/s	17000 M⁻¹ s⁻¹	726 pM/s	692 pM/s	623 pM/s	696 pM/s	Probe Cleavage (pM/s) [16]: 594 pM/s; Probe Cleavage (pM/s) [17]: 1390 pM/s; Probe Cleavage (pM/s) [18]: 65.4 pM/s; Probe Cleavage (pM/s) [19]: 17600 pM/s; Probe Cleavage (pM/s) [20]: 488 pM/s; Probe Cleavage (pM/s) [21]: 61.1 pM/s; Probe Cleavage (pM/s) [22]: 410 pM/s
